The numbers were not newly measured in publication PMC3890242, which cites them from elsewhere.

The target of this data set is Tyr57 (UniProt position 57, QIAAFYRQGLG). As to the kind of experiment: UV-vis. The settings on record: unliganded D40N pKSI.

Consider “Ketosteroid isomerase (pKSI) D40N (Pseudomonas putida; D40N)”, for which the pKa is 6.3 ± 0.1.

As usually defined, the pKa is the pH at which an ionisable group is half protonated.
